Experimental findings from patent US20150203575A1 are described below.

In assay [1] the target is FceRII expressed on cells (human) (UniProt P06734). Briefly: flow cytometry, transfected 293T cells, 50 µg/ml.
The target in assay [2] is human CD99 expressed on 293T cells (human) (UniProt P14209). The assay is described as follows: flow cytometry, transfected 293 cells, 2nd Ab anti-His-PE; untransfected 293: 0.059.
Assay [3] has as its target human COLEC12 expressed on cells (human) (UniProt Q5KU26). Described as above.
The target of assay [4] is human NPDC1 expressed on cells (human) (UniProt Q9NQX5). The description is as above.
Chain of human NPDC1 expressed on cells (human) (Q9NQX5 35-325 H113Q limits assumed): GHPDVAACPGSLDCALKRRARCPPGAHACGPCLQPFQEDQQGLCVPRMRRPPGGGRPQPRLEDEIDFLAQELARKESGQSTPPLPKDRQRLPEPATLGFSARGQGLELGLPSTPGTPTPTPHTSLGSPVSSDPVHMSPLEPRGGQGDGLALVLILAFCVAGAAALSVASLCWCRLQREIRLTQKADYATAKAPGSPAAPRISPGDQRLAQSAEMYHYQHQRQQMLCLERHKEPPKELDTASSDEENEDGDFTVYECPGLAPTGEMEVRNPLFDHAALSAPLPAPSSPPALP
Assay [5] has as its target human CD99 expressed on 293T cells (human) (UniProt P14209). The assay is described as follows: flow cytometry, transfected 293 cells, 2nd Ab anti-His-PE; untransfected 293: 0.13.
In assay [6] the target is human COLEC12 expressed on cells (human) (UniProt Q5KU26). The description is as above.
Chain of human COLEC12 expressed on cells (human) (Q5KU26 whole entry S522P/G606S): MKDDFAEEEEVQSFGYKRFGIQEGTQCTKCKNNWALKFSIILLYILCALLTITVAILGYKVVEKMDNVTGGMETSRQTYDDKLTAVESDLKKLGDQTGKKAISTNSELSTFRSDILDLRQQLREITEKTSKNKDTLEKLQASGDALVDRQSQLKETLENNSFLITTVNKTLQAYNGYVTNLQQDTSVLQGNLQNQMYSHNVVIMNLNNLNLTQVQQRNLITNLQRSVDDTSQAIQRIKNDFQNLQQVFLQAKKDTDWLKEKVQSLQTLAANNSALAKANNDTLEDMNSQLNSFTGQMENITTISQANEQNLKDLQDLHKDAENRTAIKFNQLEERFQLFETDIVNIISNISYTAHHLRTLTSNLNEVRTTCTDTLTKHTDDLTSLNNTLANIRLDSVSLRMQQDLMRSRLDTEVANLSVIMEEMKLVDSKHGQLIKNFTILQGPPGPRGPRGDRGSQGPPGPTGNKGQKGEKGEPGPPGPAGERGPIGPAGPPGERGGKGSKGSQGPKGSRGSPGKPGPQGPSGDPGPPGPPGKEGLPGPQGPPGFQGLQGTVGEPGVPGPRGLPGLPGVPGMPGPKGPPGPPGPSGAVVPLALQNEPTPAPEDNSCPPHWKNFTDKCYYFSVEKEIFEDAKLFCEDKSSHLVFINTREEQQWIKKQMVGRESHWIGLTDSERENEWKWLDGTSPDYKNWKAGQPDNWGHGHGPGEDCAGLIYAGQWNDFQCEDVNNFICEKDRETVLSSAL
Assay [7] concerns the target human NPDC1 expressed on cells (human) (UniProt Q9NQX5). The description is as above.
Assay [8] has the same target. Briefly: flow cytometry, transfected 293 cells, 2nd Ab anti-mouse IgG2a FITC; untransfected 293: 0.
The target of assay [9] is human CD99 expressed on 293T cells (human) (UniProt P14209). Briefly: flow cytometry, transfected 293 cells, 2nd Ab anti-goat-IgG-PE; untransfected 293: 0.098.
Assay [10] addresses human COLEC12 expressed on cells (human) (UniProt Q5KU26). The description is as above.
Assay [11] concerns the target human NPDC1 expressed on cells (human) (UniProt Q9NQX5). Described as above.
The target in assay [12] is FceRII expressed on cells (human) (UniProt P06734). Briefly: flow cytometry, transfected 293T cells, 2 µg/ml.

Chain of mPILRα-his (R&D) (receptor) (Q2YFS3 32-198): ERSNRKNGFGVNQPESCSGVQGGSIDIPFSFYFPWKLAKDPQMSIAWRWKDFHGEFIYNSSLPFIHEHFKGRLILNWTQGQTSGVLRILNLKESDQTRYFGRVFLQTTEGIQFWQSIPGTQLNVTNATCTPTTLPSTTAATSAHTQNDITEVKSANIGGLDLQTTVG
Chain of mPILRβ-his (R&D) (receptor) (Q2YFS2 29-195): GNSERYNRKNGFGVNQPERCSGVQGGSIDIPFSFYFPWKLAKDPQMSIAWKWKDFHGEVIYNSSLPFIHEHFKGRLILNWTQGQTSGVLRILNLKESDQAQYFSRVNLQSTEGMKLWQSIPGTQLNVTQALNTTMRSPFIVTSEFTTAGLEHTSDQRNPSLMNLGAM
Chain of human CD99 expressed on 293T cells (human) (P14209 23-185): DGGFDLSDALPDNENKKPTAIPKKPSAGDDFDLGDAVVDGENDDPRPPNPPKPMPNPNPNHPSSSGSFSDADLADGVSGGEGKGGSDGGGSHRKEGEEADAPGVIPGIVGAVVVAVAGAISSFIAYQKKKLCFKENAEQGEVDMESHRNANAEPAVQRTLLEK
Chain of FceRII expressed on cells (human) (P06734 whole entry N269T): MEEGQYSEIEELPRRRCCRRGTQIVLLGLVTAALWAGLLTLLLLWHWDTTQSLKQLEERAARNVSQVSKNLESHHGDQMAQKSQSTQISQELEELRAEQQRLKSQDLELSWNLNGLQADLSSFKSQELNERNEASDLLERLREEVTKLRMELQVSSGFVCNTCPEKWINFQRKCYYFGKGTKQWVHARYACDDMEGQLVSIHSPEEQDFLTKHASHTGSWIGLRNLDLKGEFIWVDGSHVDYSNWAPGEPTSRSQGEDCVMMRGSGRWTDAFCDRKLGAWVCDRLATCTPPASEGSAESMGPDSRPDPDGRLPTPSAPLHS

In turn, “mPILRαR133A-Fc (from UniProt Q2YFS3 32-198) (Fc fusion)” returned a % cells in lower right quadrant in [1] of 0.014%.
Turning to mPILRβ-his (R&D) (receptor), the % cells in lower right quadrant in [2] was found to be 0.043%; in [3], 0.062%; in assay [4] it was 0.22%.
On to mPILRα-his (R&D) (receptor), for which the % cells in lower right quadrant in assay [5] stood at 0.24%; in assay [6] it was 12.3%; in assay [7], 23.6%.
On to mIgG2a (Control) (antibody), for which the % cells in lower right quadrant in assay [8] is 0.018%.
For the substance Goat IgG (Control) (antibody), the % cells in lower right quadrant was 0.19% in assay [9], 2.19% in assay [10] and 1.28% in [11].
Take “mPILRα-Fc (from UniProt Q2YFS3 32-198) (Fc fusion)”: the % cells in lower right quadrant in assay [1] stood at 47.8%; in assay [12], 30.3%.
“hPILRαR126A-Fc (from UniProt Q9UKJ1 20-197) (Fc fusion)” gave a % cells in lower right quadrant in [12] of 0.028%.
For the substance “hPILRα-Fc (from UniProt Q9UKJ1 20-197) (Fc fusion)”, the figures for the % cells in lower right quadrant in assay [1] and in assay [12] were 58.1% and 15.5%, respectively.
